Measurements published in the Human Domainome abundance scans (Beltran et al. 2025).
± gives the uncertainty stated by the source.

B1: DnaJ homolog subfamily C member 5, residues 16 to 77; numbered along this chain, Q9H3Z4 (parent)
chain: LYHVLGLDKNATSDDIKKSYRKLALKYHPDKNPDNPEAADKFKEINNAHAILTDATKRNIYD

Variants of: B1
Experiment: abundance fitness (aPCA) (normalised: wild type 0, dead -1); higher = more abundant; growth selection in yeast, the domain comes from the species named
Settings: Homo sapiens

Abundance fitness of substitutions, site by site:
T53: L -0.032 ± 0.054 | S -0.116 ± 0.074 | F -0.491 ± 0.13 | M -0.157 ± 0.074 | D -0.093 ± 0.13 | N 0.101 ± 0.15 | C -0.126 ± 0.14 | E -0.277 ± 0.076 | I -0.286 ± 0.087 | W -0.579 ± 0.077 | K -0.011 ± 0.086 | Q -0.186 ± 0.083
H49: A 0.009 ± 0.099 | L -0.291 ± 0.065 | Y -0.251 ± 0.13 | I -0.639 ± 0.13 | E -0.362 ± 0.14 | N -0.062 ± 0.17 | F 0.149 ± 0.085 | Q -0.161 ± 0.15 | V -0.091 ± 0.088 | G -0.052 ± 0.066 | K -0.032 ± 0.096 | M -0.002 ± 0.11 | T -0.26 ± 0.098 | C -0.405 ± 0.15 | R 0.029 ± 0.078 | P -0.423 ± 0.11 | W -0.153 ± 0.095 | D -0.4 ± 0.13 | S -0.279 ± 0.088
N59: H -0.125 ± 0.14 | F -0.151 ± 0.16 | E 0.152 ± 0.11 | G 0.101 ± 0.077 | L -0.139 ± 0.063 | S -0.029 ± 0.089 | I -0.044 ± 0.12 | W -0.396 ± 0.087 | M -0.179 ± 0.1 | Y -0.471 ± 0.17 | Q 0.007 ± 0.1 | V -0.121 ± 0.1 | A 0.197 ± 0.12 | C 0.032 ± 0.11 | R -0.107 ± 0.072 | D -0.234 ± 0.19
I51: A -0.146 ± 0.11 | T -0.08 ± 0.084 | W -0.712 ± 0.14 | N -0.304 ± 0.13 | M -0.131 ± 0.1 | C -0.142 ± 0.1 | E -0.301 ± 0.16 | Y -0.353 ± 0.25 | D 0.123 ± 0.2 | Q 0.036 ± 0.11 | S -0.262 ± 0.1 | P -0.166 ± 0.087 | F -0.326 ± 0.23 | G -0.257 ± 0.094 | R -0.318 ± 0.064 | V 0.106 ± 0.085 | L -0.149 ± 0.061
A55: Y -0.423 ± 0.27 | D -0.514 ± 0.37 | F -0.334 ± 0.17 | L -0.26 ± 0.093 | R -0.156 ± 0.072 | Q 0.028 ± 0.11 | M -0.258 ± 0.12 | E -0.061 ± 0.061 | K -0.002 ± 0.18 | H -0.287 ± 0.26 | N -0.117 ± 0.15 | P -0.036 ± 0.14 | S -0.135 ± 0.093 | V -0.14 ± 0.1 | C -0.37 ± 0.18 | G -0.151 ± 0.076 | W -0.413 ± 0.096 | I -0.406 ± 0.39
R58: N -0.114 ± 0.33 | P -0.119 ± 0.096 | V -0.363 ± 0.083 | A -0.044 ± 0.087 | H -0.275 ± 0.16 | L -0.43 ± 0.075 | I -0.503 ± 0.13 | W -0.636 ± 0.08 | S -0.114 ± 0.072 | G -0.21 ± 0.083 | E 0.109 ± 0.12 | F -0.617 ± 0.2 | Y -0.575 ± 0.23 | Q -0.161 ± 0.16 | M -0.471 ± 0.12 | C -0.442 ± 0.15 | D -0.348 ± 0.34
D54: T -0.512 ± 0.16 | A -0.214 ± 0.14 | W -0.907 ± 0.21 | Q -0.666 ± 0.22 | M -0.634 ± 0.14 | R -0.382 ± 0.095 | K -0.056 ± 0.19 | G -0.304 ± 0.088 | V -0.613 ± 0.11 | F -1.01 ± 0.21 | L -0.632 ± 0.1 | E -0.278 ± 0.11 | C -0.499 ± 0.2 | Y -1.01 ± 0.22 | N 0.044 ± 0.13
T56: Q -0.417 ± 0.18 | C -0.069 ± 0.12 | M -0.334 ± 0.21 | R -0.246 ± 0.066 | H -0.264 ± 0.11 | A -0.233 ± 0.15 | S -0.15 ± 0.092 | E 0.097 ± 0.16 | G -0.09 ± 0.065 | I -0.425 ± 0.14 | P -0.516 ± 0.11 | D -0.095 ± 0.2 | W -0.475 ± 0.13 | V -0.396 ± 0.1 | K -0.101 ± 0.12 | F -0.499 ± 0.26 | Y -0.424 ± 0.27 | L -0.421 ± 0.09
